B1: GA2ox5-A WT (dsDNA)
DNA 1: CAATTGTTTTGTGGGGAAAGGGTGCCCTTTCTTTTTTATTCCAA
DNA 2: TTGGAATAAAAAAGAAAGGGCACCCTTTCCCCACAAAACAATTG
B2: GA2ox5-A mut (dsDNA)
DNA 1: B1 DNA 1 with G21A, G22A, C25A, C26A
DNA 2: B1 DNA 2 with G19T, G20T, C23T, C24T
B3: LOG4-A WT (dsDNA)
DNA 1: AGTAATCCTATTAGAAAAATGGGCCATGGACCTTGCCTTACCTAC
DNA 2: GTAGGTAAGGCAAGGTCCATGGCCCATTTTTCTAATAGGATTACT
B4: LOG4-A mut (dsDNA)
DNA 1: B3 DNA 1 with G21A, G22A, G23A, C24A, C25A
DNA 2: B3 DNA 2 with G21T, G22T, C23T, C24T, C25T
B5: CKX7-A WT (dsDNA)
DNA 1: CCCCGACATCTAAAGAGTGGGCCCAAATATCAGATAAATCAAGAACA
DNA 2: TGTTCTTGATTTATCTGATATTTGGGCCCACTCTTTAGATGTCGGGG
B6: CKX7-A mut (dsDNA)
DNA 1: B5 DNA 1 with G19A, G20A, G21A, C23A, C24A
DNA 2: B5 DNA 2 with G24T, G25T, C27T, C28T, C29T
B7: GA2ox4-B WT (dsDNA)
DNA 1: TCCCAAATTTTCGAATTATTAGGGGACCATTTTTTTTAAAAAAA
DNA 2: TTTTTTTAAAAAAAATGGTCCCCTAATAATTCGAAAATTTGGGA
B8: GA2ox4-B mut (dsDNA)
DNA 1: B7 DNA 1 with G23A, G24A, G25A, C27A, C28A
DNA 2: B7 DNA 2 with G17T, G18T, C20T, C21T, C22T

Where a chain is given by its changes, count along the chain named.

From paper PMC10120035, “HY5 functions as a systemic signal by integrating BRC1-dependent hormone signaling in tomato bud outgrowth” come the findings set out here.

The target of the data set is BRC1 (His-BRC1) (Solanum lycopersicum (tomato), UniProt A0A3Q7HTP5 1-406). Description: EMSA; Light Shift Chemiluminescent EMSA kit (Thermo 20148) per manufacturer; buffer, salt, pH and temperature not stated. The settings on record: protein: recombinant; tags: His (pET-32a); chain copies: 2; label: 3' biotin (probe); blunt. In general terms: Mobility shift assays separate free from complexed probe on a gel.
Chain of BRC1 (His-BRC1) (A0A3Q7HTP5 entry or part of it): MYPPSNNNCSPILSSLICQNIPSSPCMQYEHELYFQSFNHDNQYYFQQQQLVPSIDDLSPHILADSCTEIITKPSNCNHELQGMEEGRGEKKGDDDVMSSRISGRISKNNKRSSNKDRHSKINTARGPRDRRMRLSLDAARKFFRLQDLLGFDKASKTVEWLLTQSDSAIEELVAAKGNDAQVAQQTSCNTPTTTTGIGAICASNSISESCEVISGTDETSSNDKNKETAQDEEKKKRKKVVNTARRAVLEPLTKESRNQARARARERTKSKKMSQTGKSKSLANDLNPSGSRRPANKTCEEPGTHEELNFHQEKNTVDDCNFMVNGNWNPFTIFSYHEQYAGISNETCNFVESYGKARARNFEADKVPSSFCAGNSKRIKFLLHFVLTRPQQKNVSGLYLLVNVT
Turning to B1, the binding result is “binds”.
In the case of B2 it was “no binding”; in that of B3, “binds”; in that of B4, “no binding”.
On to B5, for which the binding result is on record as “binds”.
Next, B6: “no binding”.
Next, B7: “binds”; B8: “no binding”.
